Measurements as given in paper PMC9482650, “Quantitative fragmentomics allow affinity mapping of interactomes” (Nature Communications, 2022).

Legend:
Test in all cases: holdup assay
Parameters in all cases: key: below the threshold = too weak to quantify, mostly under pKd 3.1 to 4
APBA3_1, O96018 = molecular target: T1, APBA3_1, O96018
T1 sequence (O96018 389-490, limits assumed, looked up): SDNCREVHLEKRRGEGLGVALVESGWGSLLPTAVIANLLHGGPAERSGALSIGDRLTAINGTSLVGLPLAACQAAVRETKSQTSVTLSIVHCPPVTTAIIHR

CARD11, Q9BXL7 = molecular target: T2, CARD11, Q9BXL7
T2 sequence (Q9BXL7 662-765, limits assumed, looked up): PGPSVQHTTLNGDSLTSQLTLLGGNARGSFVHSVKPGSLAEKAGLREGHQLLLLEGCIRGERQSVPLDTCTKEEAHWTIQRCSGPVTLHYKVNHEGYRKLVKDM

LNX2_2, Q8N448 = molecular target: T3, LNX2_2, Q8N448
T3 sequence (Q8N448 334-432, limits assumed, looked up): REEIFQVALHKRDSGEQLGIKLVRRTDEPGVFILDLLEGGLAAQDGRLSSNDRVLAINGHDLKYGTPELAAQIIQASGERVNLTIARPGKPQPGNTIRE

PDZRN3_1, Q9UPQ7 = molecular target: T4, PDZRN3_1, Q9UPQ7
T4 sequence (Q9UPQ7 244-349, limits assumed, looked up): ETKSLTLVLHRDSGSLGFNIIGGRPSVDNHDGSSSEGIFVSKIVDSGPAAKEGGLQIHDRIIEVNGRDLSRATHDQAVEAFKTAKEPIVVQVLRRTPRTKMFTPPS

Inadl_4, Q8NI35 = molecular target: Inadl_4, Q8NI35
MPDZ_12, O75970 = molecular target: T5, MPDZ_12, O75970
T5 sequence (O75970 1857-1958, limits assumed, looked up): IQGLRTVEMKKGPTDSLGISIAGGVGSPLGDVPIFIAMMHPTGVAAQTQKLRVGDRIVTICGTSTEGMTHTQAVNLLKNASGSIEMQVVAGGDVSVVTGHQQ

NHERF4_4, Q86UT5 = molecular target: NHERF4_4, Q86UT5
MAGI2_6, Q86UL8 = molecular target: MAGI2_6, Q86UL8
SCRIB_3, Q14160 = molecular target: SCRIB_3, Q14160
TJP2_1, Q9UDY2 = molecular target: TJP2_1, Q9UDY2
GRIP2_6, Q9C0E4 = molecular target: GRIP2_6, Q9C0E4
Inadl_1, Q8NI35 = molecular target: Inadl_1, Q8NI35
GORASP1, Q9BQQ3 = molecular target: GORASP1, Q9BQQ3
GORASP2, Q9H8Y8 = molecular target: GORASP2, Q9H8Y8
GRIP2_3, Q9C0E4 = molecular target: GRIP2_3, Q9C0E4
Inadl_9, Q8NI35 = molecular target: Inadl_9, Q8NI35
DLG2_2, Q15700 = molecular target: DLG2_2, Q15700
LAP2, Q96RT1 = molecular target: LAP2, Q96RT1
GRIP1_2, Q9Y3R0 = molecular target: T6, GRIP1_2, Q9Y3R0
T6 sequence (Q9Y3R0 145-248, limits assumed, looked up): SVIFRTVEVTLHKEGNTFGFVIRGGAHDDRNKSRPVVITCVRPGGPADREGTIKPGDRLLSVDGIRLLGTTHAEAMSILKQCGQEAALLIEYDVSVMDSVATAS

LIN7A, O14910 = molecular target: T7, LIN7A, O14910
T7 sequence (O14910 103-200, limits assumed, looked up): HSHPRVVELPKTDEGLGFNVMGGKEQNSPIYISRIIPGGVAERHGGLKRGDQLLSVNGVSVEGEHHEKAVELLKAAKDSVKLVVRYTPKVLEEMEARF

MAGI2_5, Q86UL8 = molecular target: MAGI2_5, Q86UL8
HTRA3, P83110 = molecular target: T8, HTRA3, P83110
T8 sequence (P83110 354-453, limits assumed, looked up): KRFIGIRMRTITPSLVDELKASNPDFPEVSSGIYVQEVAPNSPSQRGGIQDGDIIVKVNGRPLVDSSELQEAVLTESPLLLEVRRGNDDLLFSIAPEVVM

DVL3, Q92997 = molecular target: T9, DVL3, Q92997
T9 sequence (Q92997 244-331, limits assumed, looked up): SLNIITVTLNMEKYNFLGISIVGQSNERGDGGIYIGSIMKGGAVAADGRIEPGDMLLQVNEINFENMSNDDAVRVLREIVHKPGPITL

GRIP2_7, Q9C0E4 = molecular target: GRIP2_7, Q9C0E4
PDZD7_3, Q9H5P4 = molecular target: T10, PDZD7_3, Q9H5P4
T10 sequence (Q9H5P4 857-944, limits assumed, looked up): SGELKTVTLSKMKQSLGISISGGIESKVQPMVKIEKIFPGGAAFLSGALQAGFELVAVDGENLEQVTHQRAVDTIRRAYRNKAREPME

DFNB31_1, Q9P202 = molecular target: T11, DFNB31_1, Q9P202
T11 sequence (Q9P202 135-233, limits assumed, looked up): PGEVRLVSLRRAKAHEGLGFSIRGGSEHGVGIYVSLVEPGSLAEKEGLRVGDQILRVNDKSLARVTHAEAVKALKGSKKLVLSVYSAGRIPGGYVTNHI

MAGI1_1, Q96QZ7 = molecular target: MAGI1_1, Q96QZ7
[1] = plain residues with an end cap or a label only (N-terminal biotin on a linker: ado-ado)
[2] = modified: phospho on S at position -3 from the C-terminal residue

DLG2_2, Q15700, sequence (Q15700 189-283): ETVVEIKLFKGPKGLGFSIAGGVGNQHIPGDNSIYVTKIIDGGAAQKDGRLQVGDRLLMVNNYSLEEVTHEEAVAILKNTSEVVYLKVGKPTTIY
Inadl_4, Q8NI35, sequence (Q8NI35 547-651): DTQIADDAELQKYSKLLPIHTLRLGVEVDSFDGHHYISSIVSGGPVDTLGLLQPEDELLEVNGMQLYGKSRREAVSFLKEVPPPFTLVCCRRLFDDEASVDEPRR
GRIP2_3, Q9C0E4, sequence (Q9C0E4 238-339): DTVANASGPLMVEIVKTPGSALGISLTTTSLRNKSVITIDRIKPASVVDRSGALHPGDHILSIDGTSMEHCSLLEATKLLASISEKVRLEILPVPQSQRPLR
GORASP1, Q9BQQ3, sequence (Q9BQQ3 1-208): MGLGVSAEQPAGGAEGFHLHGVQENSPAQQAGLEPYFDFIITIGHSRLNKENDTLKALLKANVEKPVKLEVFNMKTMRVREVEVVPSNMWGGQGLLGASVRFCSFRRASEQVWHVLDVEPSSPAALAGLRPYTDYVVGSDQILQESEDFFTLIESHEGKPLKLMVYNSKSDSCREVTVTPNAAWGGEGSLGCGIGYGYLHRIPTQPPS
Inadl_1, Q8NI35, sequence (Q8NI35 113-229): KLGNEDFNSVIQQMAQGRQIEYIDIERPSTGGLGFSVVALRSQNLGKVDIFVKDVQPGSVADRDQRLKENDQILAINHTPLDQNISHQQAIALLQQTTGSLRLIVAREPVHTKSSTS
TJP2_1, Q9UDY2, sequence (Q9UDY2 24-128): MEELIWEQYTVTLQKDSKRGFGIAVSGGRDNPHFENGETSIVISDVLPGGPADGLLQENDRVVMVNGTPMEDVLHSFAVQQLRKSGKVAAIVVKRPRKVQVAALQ
NHERF4_4, Q86UT5, sequence (Q86UT5 464-550): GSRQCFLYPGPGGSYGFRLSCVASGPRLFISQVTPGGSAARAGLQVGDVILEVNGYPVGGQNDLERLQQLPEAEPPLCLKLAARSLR
MAGI2_5, Q86UL8, sequence (Q86UL8 915-1017): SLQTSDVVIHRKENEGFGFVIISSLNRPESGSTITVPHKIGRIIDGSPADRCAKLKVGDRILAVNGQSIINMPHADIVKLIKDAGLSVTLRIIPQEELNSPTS
GRIP2_7, Q9C0E4, sequence (Q9C0E4 934-1023): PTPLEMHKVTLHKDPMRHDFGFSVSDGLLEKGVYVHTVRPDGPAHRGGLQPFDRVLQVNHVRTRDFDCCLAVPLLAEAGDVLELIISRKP
MAGI1_1, Q96QZ7, sequence (Q96QZ7 1-106): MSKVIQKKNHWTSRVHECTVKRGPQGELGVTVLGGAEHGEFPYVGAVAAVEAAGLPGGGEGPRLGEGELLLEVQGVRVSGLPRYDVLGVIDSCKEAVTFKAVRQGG
SCRIB_3, Q14160, sequence (Q14160 999-1103): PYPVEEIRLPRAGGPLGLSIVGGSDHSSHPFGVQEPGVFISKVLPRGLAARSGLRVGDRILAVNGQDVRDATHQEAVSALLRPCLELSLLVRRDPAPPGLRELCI
LAP2, Q96RT1, sequence (Q96RT1 other isoform, or with tags, fused parts or gaps): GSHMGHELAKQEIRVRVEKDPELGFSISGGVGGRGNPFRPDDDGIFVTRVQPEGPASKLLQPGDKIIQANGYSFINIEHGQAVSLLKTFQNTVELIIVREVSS
Inadl_9, Q8NI35, sequence (Q8NI35 1530-1615): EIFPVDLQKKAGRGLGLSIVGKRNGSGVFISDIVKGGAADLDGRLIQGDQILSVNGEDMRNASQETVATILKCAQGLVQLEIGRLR
GRIP2_6, Q9C0E4, sequence (Q9C0E4 648-740): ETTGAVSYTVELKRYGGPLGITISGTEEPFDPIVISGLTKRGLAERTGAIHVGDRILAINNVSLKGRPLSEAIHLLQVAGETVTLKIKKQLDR
MAGI2_6, Q86UL8, sequence (Q86UL8 1141-1229): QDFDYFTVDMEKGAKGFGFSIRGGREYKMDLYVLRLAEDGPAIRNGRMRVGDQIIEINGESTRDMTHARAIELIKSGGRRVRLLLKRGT

B1: TUBB4B, P68371 (peptide)
chain: FEEEAEEEVA
For B1, the pKd (APBA3_1, O96018; [1]) was “below the threshold”, the pKd (CARD11, Q9BXL7; [1]) was “below the threshold” and the pKd (LNX2_2, Q8N448; [1]) was “below the threshold”. The pKd (PDZRN3_1, Q9UPQ7; [1]) was “below the threshold”, the pKd (Inadl_4, Q8NI35; [1]) was “below the threshold” and the pKd (MPDZ_12, O75970; [1]) was “below the threshold”. The pKd (NHERF4_4, Q86UT5; [1]) was “below the threshold”, the pKd (MAGI2_6, Q86UL8; [1]) was “below the threshold” and the pKd (SCRIB_3, Q14160; [1]) was “below the threshold”. For the same binder, the pKd (TJP2_1, Q9UDY2; [1]) was “below the threshold”, the pKd (GRIP2_6, Q9C0E4; [1]) was “below the threshold” and the pKd (Inadl_1, Q8NI35; [1]) was “below the threshold”. For the same binder, the pKd (GORASP1, Q9BQQ3; [1]) was “below the threshold”, the pKd (GORASP2, Q9H8Y8; [1]) was “below the threshold” and the pKd (GRIP2_3, Q9C0E4; [1]) was “below the threshold”. For the same binder, the pKd (Inadl_9, Q8NI35; [1]) was “below the threshold”, the pKd (DLG2_2, Q15700; [1]) was “below the threshold” and the pKd (LAP2, Q96RT1; [1]) was “below the threshold”. The pKd (GRIP1_2, Q9Y3R0; [1]) was “below the threshold”, the pKd (LIN7A, O14910; [1]) was “below the threshold” and the pKd (MAGI2_5, Q86UL8; [1]) was “below the threshold”. For the same binder, the pKd (HTRA3, P83110; [1]) was “below the threshold”, the pKd (DVL3, Q92997; [1]) was “below the threshold” and the pKd (GRIP2_7, Q9C0E4; [1]) was “below the threshold”. The pKd (PDZD7_3, Q9H5P4; [1]) was “below the threshold”, the pKd (DFNB31_1, Q9P202; [1]) was “below the threshold” and the pKd (MAGI1_1, Q96QZ7; [1]) was “below the threshold”.

B2: RPS6KA1_-3P, Q15418 (peptide)
chain: RRVRKLPSTTL
In the case of B2, the pKd (APBA3_1, O96018; [2]) is reported as “below the threshold”, the pKd (CARD11, Q9BXL7; [2]) is reported as “below the threshold” and the pKd (LNX2_2, Q8N448; [2]) is reported as “below the threshold”. For the same binder, the pKd (PDZRN3_1, Q9UPQ7; [2]) was “below the threshold”, the pKd (Inadl_4, Q8NI35; [2]) was “below the threshold” and the pKd (MPDZ_12, O75970; [2]) was “below the threshold”. The pKd (NHERF4_4, Q86UT5; [2]) was “below the threshold”, the pKd (MAGI2_6, Q86UL8; [2]) was “below the threshold” and the pKd (SCRIB_3, Q14160; [2]) was 4.35. For the same binder, the pKd (TJP2_1, Q9UDY2; [2]) was 3.57, the pKd (GRIP2_6, Q9C0E4; [2]) was “below the threshold” and the pKd (Inadl_1, Q8NI35; [2]) was 3.66. The pKd (GORASP1, Q9BQQ3; [2]) was “below the threshold”, the pKd (GORASP2, Q9H8Y8; [2]) was 3.56 and the pKd (GRIP2_3, Q9C0E4; [2]) was “below the threshold”. For the same binder, the pKd (Inadl_9, Q8NI35; [2]) was “below the threshold”, the pKd (DLG2_2, Q15700; [2]) was “below the threshold” and the pKd (LAP2, Q96RT1; [2]) was “below the threshold”. For the same binder, the pKd (GRIP1_2, Q9Y3R0; [2]) was “below the threshold”, the pKd (LIN7A, O14910; [2]) was “below the threshold” and the pKd (MAGI2_5, Q86UL8; [2]) was “below the threshold”. The pKd (HTRA3, P83110; [2]) was “below the threshold”, the pKd (DVL3, Q92997; [2]) was “below the threshold” and the pKd (GRIP2_7, Q9C0E4; [2]) was “below the threshold”. For the same binder, the pKd (PDZD7_3, Q9H5P4; [2]) was 3.72, the pKd (DFNB31_1, Q9P202; [2]) was 3.6 and the pKd (MAGI1_1, Q96QZ7; [2]) was “below the threshold”.

B3: AMOTL1, Q8IY63 (peptide)
chain: PDGEMMEVLI
With B3 the pKd (APBA3_1, O96018; [1]) was “below the threshold”, the pKd (CARD11, Q9BXL7; [1]) was “below the threshold” and the pKd (LNX2_2, Q8N448; [1]) was 5.03. For the same binder, the pKd (PDZRN3_1, Q9UPQ7; [1]) was “below the threshold”, the pKd (Inadl_4, Q8NI35; [1]) was “below the threshold” and the pKd (MPDZ_12, O75970; [1]) was “below the threshold”. For the same binder, the pKd (NHERF4_4, Q86UT5; [1]) was “below the threshold”, the pKd (MAGI2_6, Q86UL8; [1]) was “below the threshold” and the pKd (SCRIB_3, Q14160; [1]) was 3.74. For the same binder, the pKd (TJP2_1, Q9UDY2; [1]) was “below the threshold”, the pKd (GRIP2_6, Q9C0E4; [1]) was 3.47 and the pKd (Inadl_1, Q8NI35; [1]) was “below the threshold”. The pKd (GORASP1, Q9BQQ3; [1]) was 3.76, the pKd (GORASP2, Q9H8Y8; [1]) was “below the threshold” and the pKd (GRIP2_3, Q9C0E4; [1]) was “below the threshold”. The pKd (Inadl_9, Q8NI35; [1]) was 3.58, the pKd (DLG2_2, Q15700; [1]) was “below the threshold” and the pKd (LAP2, Q96RT1; [1]) was “below the threshold”. For the same binder, the pKd (GRIP1_2, Q9Y3R0; [1]) was “below the threshold”, the pKd (LIN7A, O14910; [1]) was “below the threshold” and the pKd (MAGI2_5, Q86UL8; [1]) was “below the threshold”. The pKd (HTRA3, P83110; [1]) was “below the threshold”, the pKd (DVL3, Q92997; [1]) was “below the threshold” and the pKd (GRIP2_7, Q9C0E4; [1]) was “below the threshold”. The pKd (PDZD7_3, Q9H5P4; [1]) was “below the threshold”, the pKd (DFNB31_1, Q9P202; [1]) was “below the threshold” and the pKd (MAGI1_1, Q96QZ7; [1]) was “below the threshold”.
